Reference: patent US7378098
Where no end group is shown, it is not given here.

Target: T1, CXC chemokine receptor 4 (CXCR4) (UniProt P61073 1-352, limits assumed)
T1 construct: whole, on cells; Both are human cell lines; also called CXCR4 receptor; SDF-1 receptor
Experiment: competition with 4 nM 125I-SDF-1 on CEM cells (FIG. 2C)
Method: The results are expressed as percentages of the maximal specific binding that was determined without competing ligand, and are the mean of three independent experiments.

T1 sequence (P61073 whole entry): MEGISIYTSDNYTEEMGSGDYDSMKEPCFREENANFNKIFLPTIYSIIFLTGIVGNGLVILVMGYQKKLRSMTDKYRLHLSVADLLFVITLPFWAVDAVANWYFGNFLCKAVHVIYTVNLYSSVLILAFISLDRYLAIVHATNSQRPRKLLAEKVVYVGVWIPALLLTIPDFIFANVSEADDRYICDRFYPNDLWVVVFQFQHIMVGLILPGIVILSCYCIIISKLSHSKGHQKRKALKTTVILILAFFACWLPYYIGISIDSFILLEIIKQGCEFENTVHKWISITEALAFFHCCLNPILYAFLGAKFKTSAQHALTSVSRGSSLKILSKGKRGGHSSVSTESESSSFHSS

B1: SDF-1(1-8)2-lysine bridge dimer (CTCE9904) (peptide)
peptide 1: KPVSLSYRK-NH2
peptide 2: KPVSLSYR
modifications: also: dimer: two KPVSLSYR chains bridged through alpha and epsilon amino groups of one lysinamide, lactam at chain A 9 at chain B 8 to a chain's C-terminus
notes: It is not known whether the bridging lysine is part of either listing entry; also called SDF-1 (1-8)2-lysine dimer
binding result: binds
